Data taken from patent publication US20210163622A1 (FATE THERAPEUTICS, published 2021).

Target: T1, human MICA on target cells (human, UniProt Q29983 24-383)
T1 sequence (looked up): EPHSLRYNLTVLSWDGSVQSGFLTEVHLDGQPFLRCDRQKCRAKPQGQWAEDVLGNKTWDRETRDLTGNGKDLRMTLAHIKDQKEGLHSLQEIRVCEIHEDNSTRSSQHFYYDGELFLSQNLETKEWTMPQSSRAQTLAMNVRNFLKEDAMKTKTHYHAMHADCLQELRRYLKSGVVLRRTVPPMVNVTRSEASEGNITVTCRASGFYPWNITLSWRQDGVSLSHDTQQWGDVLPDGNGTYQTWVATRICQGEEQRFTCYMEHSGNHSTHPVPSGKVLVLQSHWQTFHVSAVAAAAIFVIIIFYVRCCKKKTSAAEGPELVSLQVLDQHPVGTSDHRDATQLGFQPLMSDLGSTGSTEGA
Experiment: cell-based or functional assay

B1: MICA/B CAR (chimeric antigen receptor with a MICA/B-binding scFV; version not stated at the assay) (scFv, V domains shown)
VH: QIQLVQSGPELKKPGETVKVSCKASGYMFTNYAMNWVKQAPEKGLKWMGWINTHTGDPTYADDFKGRIAFSLETSASTAYLQINNLKNEDTATYFCVRTYGNYAMDYWGQGTSVTVSS
VL: DIQMTQTTSSLSASLGDRVTISCSASQDISNYLNWYQQKPDGTVKLLIYDTSILHLGVPSRFSGSGSGTDYSLTISNLEPEDIATYYCQQYSKFPRTFGGGTTLEIK
With B1 the “cytotoxicity of MICA/B CAR+ T cells against MICA+ Nalm6 cells, % Caspase 3/7+ target cells over E:T ratio, 4 h (EC50)” value was roughly 1.9 and the “cytotoxicity of MICA/B CAR+ iNK cells against P815 MICA+ cells, % Caspase 3/7+ target cells over E:T ratio, 4 h (EC50)” value was roughly 5.2.
